From patent US6106844A, “Immunomodulatory peptides of vespid antigen 5” (The Rockfeller University, priority 1998, dated 2000)

Assays:
[1] = test system: Ag5 specific spleen cells from BALB/c mice; assay: In vitro proliferation assay, spleen cells of Ag5-immunized BALB/c mice; format: cell-based; settings: spleen cells from mice immunized with rAg5; blank 3970 cpm
Procedure: FIG. 4. Stimulation index profile of BALB/c mice spleens after 4 immunizations with natural (n)-Ag5. In vitro proliferation assays were performed with peptides at three concentrations: 1×10^-5 M (open bar), 1.25×10^-6 M ("uphill" hatch), and 1.56×10^-7 M ("downhill" hatch). The corresponding concentrations of recombinant antigen 5 control were 1.0×10^-6 M, 1.25×10^-7, and 1.56×10^-8 M. The blank was 2200 cpm.
FIG. 5. Stimulation index profile of BALB/c mice spleens after 4 immunizations with recombinant (r)-Ag5. In vitro proliferation assays were performed with peptides at three concentrations: 1×10^-5 M (open bar), 1.25×10^-6 M ("uphill" hatch), and 1.56×10^-7 M ("downhill" hatch). The corresponding concentrations of recombinant Antigen 5 were 1.0×10^-6 M, 1.25×10^-7, and 1.56×10^-8 M. The blank was 4700 cpm.
FIG. 6. […] In vitro proliferation assays were performed with peptides at three concentrations: 1×10^-5 M (open bar), 1.25×10^-6 M ("uphill" hatch), and 1.56×10^-7 M ("downhill" hatch). The corresponding concentrations of recombinant Antigen 5 were 1.0×10^-6 M, 1.25×10^-7, and 1.56×10^-8 M. […]
(§1) The peptides of the invention can be tested in a proliferation assay for T cell responses. Generally, lymphocytes from a sensitized host are obtained. The host can be a mouse that has been immunized with a vespid venom antigen 5, or with a crossreactive protein, such as testes specific protein. Using techniques that are well known in the art, T lymphocyte response to the peptide can be measured in vitro. In a specific embodiment, infra, T cell responses are detected by measuring incorporation of ^3 H-thymidine, which increases with DNA synthesis associated with proliferation. Cell proliferation can also be detected using an MTT assay [Mossman, J. Immunol. Methods, 65:55-63,(1983); Niks and Otto, J. Immunol. Methods, 130:140-151 (1990)]. Alternatively, lymphokine production assays can be practiced according to the present invention. In one embodiment, lymphokine production can be assayed using immunological or co-stimulation assays [see, e.g., Fehlner et al., J. Immunol., 146:799 (1991)] or using the ELISPOT technique [Czerkinsky, et al., J. Immunol. Methods, 110:29 (1988)]. Alternatively, mRNA for lymphokines can be detected, e.g., by amplification [see Brenner, et al., Biotechniques, 7:1096 (1989)] or in situ hybridization [see, e.g., Kasaian and Biron, J. Immunol., 142:1287 (1989)]. Of particular interest are those individuals whose T cells produce lymphokines associated with IgE isotype switch events, e.g., IL-4 and IL-5 [Purkeson and Isakson, J. Exp. Med., 175:973-982 (1992)]. Also of interest are the peptide fragments of the vespid venom antigen 5 that contain epitopes recognized by T cells involved in IgE switch events. […]

[2] = test system: r-Ag5 specific spleen cells from ASW/Sn mice; assay: In vitro proliferation assay, spleen cells of r-Ag5-immunized ASW/Sn mice; format: cell-based; settings: spleen cells from mice immunized 5 times with rAg5; blank 5640 cpm
Procedure: FIG. 11. Stimulation index profile of ASW/sn mice spleens after 5 immunizations with r-Ag5. In vitro proliferation assays were performed with peptides at three concentrations: 1×10^-5 M (open bar), 1.25×10^-6 M ("uphill" hatch), and 1.56×10^-7 M ("downhill" hatch). The corresponding concentrations of recombinant Antigen 5 were 1.0×10^-6 M, 1.25×10^-7, and 1.56×10^-8 M. The blank was 5640 cpm.
as §1

n-Dol m 5.01 = target: T1, n-Dol m 5.01 (Dolichovespula maculata, UniProt P10736); assay: Antibody response by direct ELISA of mice immunized with recombinant white faced hornet Ag5, wells coated with n-Dol m 5.01; format: in vivo; settings: week five sera after three i.p. immunizations with rDol m 5.02 and alum
T1 construct: from tissue; host or cells: natural protein
T1 sequence (P10736 24-227): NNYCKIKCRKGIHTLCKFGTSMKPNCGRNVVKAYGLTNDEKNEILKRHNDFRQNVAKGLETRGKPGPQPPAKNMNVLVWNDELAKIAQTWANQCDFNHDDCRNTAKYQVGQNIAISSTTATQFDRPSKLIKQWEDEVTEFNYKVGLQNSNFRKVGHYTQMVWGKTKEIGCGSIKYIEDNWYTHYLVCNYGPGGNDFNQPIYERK
Procedure: Antibody response in mice of different haplotypes to recombinant hornet Ag5. Five strains of mice were immunized with recombinant (r) white faced hornet Ag5 and alum as adjuvant. […] The antibody titers (the reciprocal of the dilution yielding 50% of maximum signal extrapolated from ELISA curves in wells coated with r-Dol m 5.02 or n-Dol m 5.01) of these sera for n-(natural) and r-Ag5 are given in Table 3.
*Sera are from week five bleeding after three intraperitoneal
immunizations with 0.2 ml of 10 μg/ml rDol m 5.02 and alum (5 μg/ml
in 0.05 m sodium phosphate buffer, pH 6.2, on weeks 0, 2, and 4.

B1: r-Ag5: recombinant white faced hornet (Dolichovespula maculata) antigen 5 form 2, Dol m 5.02 (protein)
chain: NNYCKIKCSRGIHTLCKFGTSMKPNCGSKLVKVHGVSNDEKNEIVNRHNQFRQKVAKGLETRGNPGPQPPAKNMNVLVWNDELAKIAQTWANQCSFGHDQCRNTEKYQVGQNVAIASTTGNSYATMSKLIEMWENEVKDFNPKKGTMGDNNFSKVGHYTQMVWGKTKEIGCGSVKYIENNWHTHYLVCNYGPAGNYMDQPIYERK
Stimulation Index BALB/c [1]: 20.9
Stimulation Index ASW/Sn [2]: 15.4
Half maximal Ab titer n-Dol m 5.01 (n-Dol m 5.01; ASW/Sn mice (haplotype s)): 1 × 10^5
Half maximal Ab titer n-Dol m 5.01 (n-Dol m 5.01; BALB/c byj mice (haplotype d)): 4 × 10^4
Half maximal Ab titer n-Dol m 5.01 (n-Dol m 5.01; C3H/He mice (haplotype k)): 2 × 10^3
Half maximal Ab titer n-Dol m 5.01 (n-Dol m 5.01; C57B1/6 mice (haplotype b)): 2 × 10^1
Half maximal Ab titer n-Dol m 5.01 (n-Dol m 5.01; P/J mice (haplotype p)): 1 × 10^4
